Source: article PMC7527217 (Science Advances, 2020)
Where two headings read alike, the source gives them in different places.

What was measured:
[1] = biological target: recombinant trBcl-2L2 (Trichoplax adhaerens Bcl-2-like protein 2), lacking the 7 N-terminal and 34 C-terminal residues (Trichoplax adhaerens); test: ITC
[2] = biological target: recombinant trBcl-2L1 (Trichoplax adhaerens Bcl-2-like protein 1), lacking the 33 N-terminal and 29 C-terminal residues (Trichoplax adhaerens); test: ITC
[3] = biological target: recombinant human Mcl-1 (residues 171 to 320) (human, UniProt Q07820 171-320); test: ITC
[4] = biological target: T1, recombinant human Bcl-w (residues 9 to 152) (human, UniProt Q92843 9-152); test: ITC
T1 sequence (looked up): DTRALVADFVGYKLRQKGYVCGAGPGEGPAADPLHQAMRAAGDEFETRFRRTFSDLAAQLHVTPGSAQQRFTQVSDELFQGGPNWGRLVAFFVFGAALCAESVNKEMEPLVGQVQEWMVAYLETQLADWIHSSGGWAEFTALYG

[5] = biological target: T2, recombinant human A1/Bfl-1 (residues 1 to 151) (human, UniProt Q16548 1-151); test: ITC
T2 sequence (looked up): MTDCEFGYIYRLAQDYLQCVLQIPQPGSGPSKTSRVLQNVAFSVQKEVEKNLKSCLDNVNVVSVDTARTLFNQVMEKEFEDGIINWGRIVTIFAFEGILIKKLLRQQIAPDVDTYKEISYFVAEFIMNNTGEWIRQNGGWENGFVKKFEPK

[6] = biological target: recombinant human Bcl-xL (residues 1 to 209, Δloop45 to 84) (human, UniProt Q07817-1 1-209, Δloop45 to 84); test: ITC
[7] = biological target: recombinant human Bcl-2 (residues 10 to 203) (human, UniProt P10415 10-203); test: ITC
[8] = biological target: recombinant trBcl-2L2 (Trichoplax adhaerens Bcl-2-like protein 2), lacking the 7 N-terminal and 34 C-terminal residues (Trichoplax adhaerens); test: ITC; remark: listed apart in the source
[9] = biological target: recombinant trBcl-2L1 (Trichoplax adhaerens Bcl-2-like protein 1), lacking the 33 N-terminal and 29 C-terminal residues (Trichoplax adhaerens); test: ITC; remark: listed apart in the source
Flag-tagged trBcl-2L2 = biological target: T3, Flag-tagged trBcl-2L2 (Trichoplax adhaerens, UniProt A0A1B1IJN9 1-211); test: FRET or BRET
T3 sequence (looked up): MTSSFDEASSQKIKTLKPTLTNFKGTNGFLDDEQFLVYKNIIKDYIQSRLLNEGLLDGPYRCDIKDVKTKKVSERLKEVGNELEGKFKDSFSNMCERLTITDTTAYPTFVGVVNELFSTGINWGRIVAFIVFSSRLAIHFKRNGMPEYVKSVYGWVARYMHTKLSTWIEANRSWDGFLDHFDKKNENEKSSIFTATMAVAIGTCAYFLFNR

Flag-tagged trBcl-2L1 = biological target: T4, Flag-tagged trBcl-2L1 (Trichoplax adhaerens, UniProt A0A1B1IJP0 1-215); test: FRET or BRET
T4 sequence (looked up): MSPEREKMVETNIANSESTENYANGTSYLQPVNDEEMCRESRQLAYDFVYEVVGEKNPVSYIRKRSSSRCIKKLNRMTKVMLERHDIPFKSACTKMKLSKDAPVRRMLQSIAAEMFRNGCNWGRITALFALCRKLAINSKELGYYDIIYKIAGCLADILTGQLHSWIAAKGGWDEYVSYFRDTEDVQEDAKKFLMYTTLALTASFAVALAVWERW

Sequence of recombinant human Mcl-1 (residues 171 to 320) (Q07820 171-320): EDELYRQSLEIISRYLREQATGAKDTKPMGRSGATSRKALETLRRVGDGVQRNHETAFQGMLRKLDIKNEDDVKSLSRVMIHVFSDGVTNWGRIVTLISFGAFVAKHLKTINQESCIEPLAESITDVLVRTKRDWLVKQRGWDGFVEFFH
Sequence of recombinant human Bcl-2 (residues 10 to 203) (P10415 10-203): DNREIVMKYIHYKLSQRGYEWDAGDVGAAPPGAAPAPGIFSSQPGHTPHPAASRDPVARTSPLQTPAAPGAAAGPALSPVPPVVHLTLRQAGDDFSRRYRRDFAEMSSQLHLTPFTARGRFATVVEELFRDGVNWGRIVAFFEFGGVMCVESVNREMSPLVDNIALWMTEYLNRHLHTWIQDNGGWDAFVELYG

hsPuma BH3 peptide
Kd [1]: 81 nM | Kd [2]: 5 nM

hsBax BH3 peptide
Kd [1]: 15 nM | Kd [2]: 7 nM

hsBim BH3 peptide
Kd [1]: 41 nM | Kd [2]: 83 nM

hsBid BH3 peptide
Kd [1]: 170 nM | Kd [2]: 124 nM

IEPTSPTIQVARTIRQIGDELDSDPHLN [trBax BH3 peptide]
Kd [3]: 67 nM | Kd [4]: 767 nM | Kd [5]: 135 nM | Kd [6]: 877 nM | Kd [7]: 3060 nM | Kd [8]: 728 nM | Kd [9]: 426 nM

B1: EGFP-tagged trBax (natural protein, Trichoplax adhaerens, UniProt A0A1B1IJP1 1-241, looked up)
chain: MADFTYVLITRSISTIFSSSCLIAMAHVKSVTSTPTTTTTTTTQSCPRREENLKEIAAESKKLFLDFIADRSAKDGQDQGCISQLTREHNELQIEPTSPTIQVARTIRQIGDELDSDPHLNGLLHKLHVTSSTAYSTFRRVAMRIFQDGQFNWGRIITLFFFGYRLTIRVLSESPIVEMIISWIARFIYEICSFWIAESGGWDAITQYIQQADWKNKYTLGLIAVGVLVTAFVTWQRYNSS
FRET efficacy (Flag-tagged trBcl-2L2): 2.81% | FRET efficacy (Flag-tagged trBcl-2L1): 5.84%

PSSPTSEIGRHLAQLGDSYSVRFQNE [trBak BH3 peptide]
binding result [3]: binds | binding result [4]: binds | Kd [5]: 13 nM | Kd [6]: 197 nM | Kd [7]: 45 nM | Kd [8]: 563 nM | Kd [9]: 1430 nM

B2: EGFP-tagged trBak (natural protein, Trichoplax adhaerens, UniProt A0A1B1IJN7 1-251, looked up)
chain: MSSTITIAESLENGENNDEQEEANTSRSQFRVTRAQVIRRQLSANPAHLPVSEQEVINETSSIFRSFVVESYQAERDGGIIAEEVRSFADQVQSSSNQTITPSSPTSEIGRHLAQLGDSYSVRFQNEFRLMITHLDINPGTAYRTFAGVARRLFRDGISWRRIVTLMAFGYQIAIDVMRSGVQGFLSRICNFIVRFISGEHIANWIARQGGWRAARYEGLASPGWPAIIGVATAAAASVFGVLWLSGYFRE
FRET efficacy (Flag-tagged trBcl-2L2): 5.45% | FRET efficacy (Flag-tagged trBcl-2L1): 11.2%
